Laboratory results published in publication PMC3314686 (2012).

B1: GFP-DOR (human DOR/TP53INP2, full length) [modified: [35S]methionine label; [35S]methionine label] [human] / GST-LC3B (full-length proform) [human] (parent complex)
chain 1: MFQRLSSLFFSTPSPPEDPDCPRAFVSEEDEVDGWLIIDLPDSYAAPPSPGAAPAPAGRPPPAPSLMDESWFVTPPACFTAEGPGLGPARLQSSPLEDLLIEHPSMSVYVTGSTIVLEPGSPSPLPDAALPDGDLSEGELTPARREPRAARHAAPLPARAALLEKAGQVRRLQRARQRAERHALSAKAVQRQNRARESRPRRSKNQSSFIYQPCQRQFNY
chain 2: not shown

Variants of: B1
Assay: GST pull-down; in vitro translated [35S]methionine-labelled GFP fusion; three independent experiments; parent: 21; read off a plot

Question: Which response does the source give for chain 1 W35A, chain 1 I38A here?
Answer: The response was roughly 3.4 % Binding.
